Source: the DeepSol protein solubility set

Assay: soluble on expression in E. coli; label from the status in PepcDB or PDB records

Sequence | soluble on expression in E. coli
PHLAFFAFAGALGFAGWRQSKKPVQDTQIEQVEALSQAMQEEDTPLTWDDIPHVHTLSLALGYRLVHLVNKDQGAPLSQRIRGVRRNLSEQVGFLLPEVRIRDNLSLKPNQYTISLNGEVIEQGFIEPERLMAIAVGDTYGEIDGILGSDPAYQLPAVWIEHQDKAKALNMGYQVVDDGTVIATHISKIMKTNLAELFTHDDVEAMTQRLTQQAPKLAEALAAALNPAQQLKVYRQLLLDQVPLKDIRTIANTMLESSENTKDPILLAADVRCALKRTLVNLIAGQKPELNVYALSDELEQMLLTSLQQAQASGTVVLDSFPIEPNILGQFQQNLPLIRQQLKQQGLPPILLVMPQLRPLLARYARTFTQGLAVLSYNEIPENKQINVVGNLG | not soluble
SSTFEDADTEETVTCLQMTIYHPGQQSGIFKSIRFCSKEKFPSIEVVKFGRNSNMCQYTFQDKQVSRIQFVLQPFKQFNSSVLSFEIKNMSKKTSLMVDNQELGYLNKMDLPYKCMLRFGEYQFLLQKEDGESVESFETQFIMSSRPLLQENNWPTQNPIPEDGMYSSYFTHRSSPSEMDENEL | soluble
SLRYASDFEEIAVLGQGAFGQVVKARNALDSRYYAIKKIRHTEEKLSTILSEVMLLASLNHQYVVRYYAAWLERRNFVKPMTAVKKKSTLFIQMEYCENRTLYDLIHSENLNQQRDEYWRLFRQILEALSYIHSQGIIHRDLKPMNIFIDESRNVKIGDFGLAKNVHRSLDILKLDSQNLPGSSDNLTSAIGTAMYVATEVLDGTGHYNEKIDMYSLGIIFFEMIYPFSTGMERVNILKKLRSVSIEFPPDFDDNKMKVEKKIIRLLIDHDPNKRPGARTLLNSGWLPVKHQDEVIKEALKSL | soluble
SKRVEVLLTQLPAYNRLKTPYEAELIETAKKMTAPGKGLLAADESTGSCSKRFAGIGLSNTAEHRRQYRALMLECEGFEQYISGVILHDETVYQKAKTGETFPQYLRRRGVVPGIKTDCGLEPLVEGAKGEQMTAGLDGYIKRAKKYYAMGCRFCKWRNVYKIQNGTVSEAVVRFNAETLARYAILSQLCGLVPIVEPEVMIDGTHDIETCQRVSQHVWSEVVSALHRHGVVWEGCLLKPNMVVPGAESGLKGHAEQVAEYTVKTLARVIPPALPGVTFLSGGLSEVMASEYLNAMNNCPLPRPWKLTFSYARALQSSAIKRWGGKESGVEAGRRAFMHRAKMNSLAQLGKYNRADDDKDSQSLYVAGNT | soluble
MLVENLAHFSADTRFEADLVIIGGGPAGLTVARELRGAPLRVLIVESGLLEEAPQANELSTLESIGEPNAPHQIQKRIAFHGANCRSWTQDLQPYGVRCRALGGSTHAWAGKSAAFDDIDFQERAWVPHSGWPMDRSSLDPFLDRAADILNLGPNRYDDTLWTLLGISPPEPQLGTQGLRSFFWQFSRSRVDPLDIMRFGADFLRLEADNIRVLLNATATRLDLTQEGDGFRGLEIATNDGQRHTVHAKAAVIAGGGIENARLLLASTTIHANGVGNQYDLVGRFLMDHAGARIARFGGSNANQIMRRFGFYGLRNSGRTSMYMHGLAITPEMQEREHLLNSAIYFMPEHAADDPWDAVKRLLTGKSKRQVKDAMRAIAGAGLLGKGAAMKLLSSDRLPVAVKDFIVQTAIRYMPNVAADDFLSRGVPHKVTDVWIDAISEQQPDPDSRITLSEKTDRLGLPLARVNWKINADERRTIMRLGHIVESAFAQARLPKPILEPWVAEGAFNDAVIIDMAHSMGTTRMSASARSGVVDEQCQVHGVRDLYIAGSSIFPTSGHANPTLMIVAFAVRLADRIRQTLL | not soluble
MSLSKREEWAQGFILNLQSGYTQGTVGFGLDAMGMLGVKLDSGRGRSGTGLLPKDSDGRAPDTYSKLGLTAKVKVSQSELKVGTLIPKLPSVQPNNGRIFPQIFEGALLTSKEIKDLGFTAGRLEKTKIRDSSDSEDLALNDKNGRFAGVSADHFDLGGLDYKLTDQLTASYHYSNLQDVYRQHFVGLLHSWPIGPGELTSDLRFARSTDSGSAKAGGIDNKSLNGMFTYSLGNHAFGAAWQRMNGDDAFPYLEGSNPYLVNFVQVNDFAGPKERSWQLRYDYDFVGLGIPGLTFMTRYVKGDNVELAGQSGEGREWERNTELQYVFQSGALKNLGIRWRNATFRSNFTRDIDENRLIVSYTLPIWEGHHHHHH | not soluble
MGSDKIHHHHHHAQQPVELPLWPDGAPNSNGLTGGEKEVSPHRLSNVTAPTITVYRAPQPNGMAVIMCPGGGYSRLAMDHEGHDMASWFCGQGITYVVLKYRMPNGHCEVPLSDAERAIRIVREHAGEWNIHPRKIGIMGASAGGHLASTLATHYSAASRPDFQILLYPVVTMTQSTHGGSRKELLGGNPTAEQEVLFSNELQVTSDTPQAFIVLSSDDGAVPPSNGVNYYLALQKNNVPASLHVYPTGGHGWGFRDNFKYKQQWTQELEKWLREGVVFPKETAPMLRIGKTYLGTKYVANTLDQGTEEKLVILPQTVDCLTFVEYTLAQAMGSSFADNLQKIRYRDGVIDGYTSRLHYTSDWIENGVRQGFLEDVTAQNSTQTTKLSLSYMSTHPQKYRQLADSPENVKRMAEHEKALSGKKVHWLPKGKLPDAGLPWIMDGDIIAITTNLPGLDVAHVGMAEYINGKLHLLHASSTLGKVVVSEEPLSQMLRNNKSWSGIRVVRMSHP | not soluble
MAIYADNSYSIGNTPLVRLKHFGHNGNVVVKIEGRNPSYSVKCRIGANMVWQAEKDGTLTKGKEIVDATSGNTGIALAYVAAARGYKITLTMPETMSLERKRLLCGLGVNLVLTEGAKGMKGAIAKAEEIVASDPSRYVMLKQFENPANPQIHRETTGPEIWKDTDGKVDVVVAGVGTGGSITGISRAIKLDFGKQITSVAVEPVESPVISQTLAGEEVKPGPHKIQGIGAGFIPKNLDLSIIDRVETVDSDTALATARRLMAEEGILAGISSGAAVAAADRLAKLPEFADKLIVVILPSASERYLSTALFEGIEG | soluble
MSLGRAGRGIDSAVGILLCGSEDRAIHKFFRESAFPAEAQIHEILNVLSVNDGLTLRGIEQRTNLRYGQIEKALKLLVAENPSPVVYTEKLWRRTIVSFSPDHERINHLMNQRKSELADVESYITTKECKMQFLRRALDEPGAEHCGKCSSCLQHPLLSPDIDSGLLHAANLFIKHADLSLNLNKQVAAGAFTQYGFKGNLPASLQGSTGRILSRWGYSGWGKQVAQEKKTGRFSDELVEACAEMVRQRWNPHPEPTWVCCVPSLKHLDLVPDFESTSTWFLILPGDWRRNLAYLLLMPLKKSWTIHRRKCSKTVSTSVKISTGREGHHHHHH | not soluble
MSRFVQDLSKAMSQDGASQFQEVILQELELSVKKELEKILTTAASHEFEHTKKDLDGFRKLFHRFLQEKGPSVDWGKIQRPPEDSIQPYEKIKARGLPDNISSVLNKLVVVKLNGGLGTSMGCKGPKSLIGVRNENTFLDLTVQQIEHLNKTYNTDVPLVLMNSFNTDEDTKKILQKYNHCRVKIYTFNQSRYPRINKESLLPIAKDVSYSGENTEAWYPPGHGDIYASFYNSGLLDTFIEEGKEYIFVSNIDNLGATVDLYILNHLMNPPNGKRCEFVMEVTNKTRADVKGGTLTQYEGKLRLVEIAQVPKAHVDEFKSVSKFKIFNTNNLWISLGAVKRLQEQNAIDMEIIVNPKTLDGGLNVIQLETAVGAAIKSFENSLGINVPRSRFLPVKTTSDLLLVMSNLYSLNAGSLTMSEKREFPTVPLVKLGSSFTKVQDYLRRFESIPDMLELDHLTVSGDVTFGKNVSLKGTVIIIANHGDRIDIPPGAVLENKIVSGNLRILDH | soluble
MSLDFLSQCTSGGCGAKIESRVLNQLLQHLPETPANERLLVGFEHADDAAVYQITSEKALISTVDFFSPMVNDPLSFGKIAVANALSDVYAMGGTVLYALNLVCFPQKMSKEWLEQMLLGGSLKLKEAGALLAGGHSIYDHEPKYGLAVTGEVHPENLWHNNTPQVGDVLILTKALGVGIIQAAVRGQLAKQTEQKIAQDSMERLNKYAAANARSYAVHACTDVTGFGLLIHAKEMADNQVTLLIDTEALPTITGALAYAAECLVTAAGQRNRQTIGTTIDYSKISMEMQELLFDPQTSGGLLISVAADEAAACLAAIQKEDPVAKIIGEVLPKEQQAVVLLEGHHHHHH | not soluble
MTNKKKEITIHSSAAEYLTYVASTGRNSDSFEMRYEDENIWLTQKMMATLYDVSVSAINQHLKRIFEDDELVEESVIKKYLITASDGKSYSTKHYNLQAIIAVGFKVNNDRAVRFRKWAGQIVKDYTIQGWTMDKERLKKGHMFTDEYFERQLENIREIRLSERKFYQKVTDLYATAFDYDKDAKTTRQFFKMVQNKMHWAVHRHTAAELIVERANAEKEHMGLTTWESAPDGKIVKADVTVAKNYLSEKEMSYLQRIVSLYLDYAELQAERRIPMSMEDWAKRLDGFLEFNGNELLMGLGKVSAEQAKLHAETEFEKYRIVQDRLFMSDYDKYLIELEHQADQSDV | not soluble
